According to the supplement of paper PMC10567573:

B1: TLE6 (parent)
chain: FWHDTLTEQLWRIFAGVHDEKAKP

Variants of: B1
Experiment: protein stability index of a GFP-peptide fusion (GPS, HEK-293T) (PSI 1-6); higher = more stable
Details: c terminus: a fixed tail appended
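Also: lentivirally expressed fusions sorted by FACS into six bins by GFP to DsRed ratio, PSI derived from sequencing read proportions per bin multiplied by bin number.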

Q: Which protein stability index does the source give for FWHDTLTEQYWRIFAGVHDEKAKP here?
A: 1.75

Q: For FWHDTLTEQVWRIFAGVHDEKAKP, which protein stability index is on record?
A: 2.11

Q: With FWHDTLTEQTWRIFAGVHDEKAKP as the variant, how does the protein stability index read?
A: 1.74

Q: For FWHDTLTEQWWRIFAGVHDEKAKP, which protein stability index is on record?
A: 2.42

Q: Which protein stability index does the source give for FWHDTLTEQLWRIFAGHHDEKAKP here?
A: 2.82

Q: Which protein stability index does the source give for FWHDTLTEQLWRIFAGIHDEKAKP here?
A: 1.14

Q: With FWHDTLTEQLWRIFAGRHDEKAKP as the variant, how does the protein stability index read?
A: 2.25

Q: Which protein stability index does the source give for FWHDTLTEQLWRIFAGSHDEKAKP here?
A: 1.85

Q: For FWHDTLTEQLWRIFAGWHDEKAKP, which protein stability index is on record?
A: 1.61

Q: With FWHDTLTEQLWRIFAGTHDEKAKP as the variant, how does the protein stability index read?
A: 1.33

Q: With FWHDTLTEQLWRIFAGGHDEKAKP as the variant, how does the protein stability index read?
A: 2.26

Q: Which protein stability index does the source give for FWHDTLTEQLWRIFAGFHDEKAKP here?
A: 1.69

Q: With FWHDTLTEQLWRIFAGYHDEKAKP as the variant, how does the protein stability index read?
A: 1.54

Q: With FWHDTLTEQLWRIFAGAHDEKAKP as the variant, how does the protein stability index read?
A: 2.81

Q: Which protein stability index does the source give for FWHDTLTEQLWRIFAGEHDEKAKP here?
A: 1.83

Q: For FWHDTLTEQLWRIFAGMHDEKAKP, which protein stability index is on record?
A: 1.93

Q: Which protein stability index does the source give for FWHDTLTEQLWRIFAGKHDEKAKP here?
A: 1.79

Q: With FWHDTLTEQLWRIFAGPHDEKAKP as the variant, how does the protein stability index read?
A: 1.65

Q: With FWHDTLTEQLWRIFAGLHDEKAKP as the variant, how does the protein stability index read?
A: 1.48

Q: For FWHDTLTEQLWRIFAGQHDEKAKP, which protein stability index is on record?
A: 2.06

Q: For FWHDTLTEQLWRIFAGDHDEKAKP, which protein stability index is on record?
A: 1.92

Q: With FWHDTLTEQLWRIFAGNHDEKAKP as the variant, how does the protein stability index read?
A: 1.83

Q: With FWHDTLTEQLWRIFAGCHDEKAKP as the variant, how does the protein stability index read?
A: 1.47

Q: With FWHDTLTEQLWRIFAGVHYEKAKP as the variant, how does the protein stability index read?
A: 2.97

Q: Which protein stability index does the source give for FWHDTLTEQLWRIFAGVHNEKAKP here?
A: 2.8

Q: With FWHDTLTEQLWRIFAGVHPEKAKP as the variant, how does the protein stability index read?
A: 1.8

Q: With FWHDTLTEQLWRIFAGVHFEKAKP as the variant, how does the protein stability index read?
A: 2.61

Q: With FWHDTLTEQLWRIFAGVHIEKAKP as the variant, how does the protein stability index read?
A: 2.08

Q: With FWHDTLTEQLWRIFAGVHWEKAKP as the variant, how does the protein stability index read?
A: 3.85

Q: Which protein stability index does the source give for FWHDTLTEQLWRIFAGVHCEKAKP here?
A: 2.06

Q: Which protein stability index does the source give for FWHDTLTEQLWRIFAGVHTEKAKP here?
A: 2.7

Q: Which protein stability index does the source give for FWHDTLTEQLWRIFAGVHEEKAKP here?
A: 1.62

Q: With FWHDTLTEQLWRIFAGVHGEKAKP as the variant, how does the protein stability index read?
A: 1.72

Q: Which protein stability index does the source give for FWHDTLTEQLWRIFAGVHAEKAKP here?
A: 2.33

Q: With FWHDTLTEQLWRIFAGVHHEKAKP as the variant, how does the protein stability index read?
A: 1.65

Q: With FWHDTLTEQLWRIFAGVHKEKAKP as the variant, how does the protein stability index read?
A: 1.7

Q: Which protein stability index does the source give for FWHDTLTEQLWRIFAGVHLEKAKP here?
A: 1.39

Q: Which protein stability index does the source give for FWHDTLTEQLWRIFAGVHQEKAKP here?
A: 1.22

Q: Which protein stability index does the source give for FWHDTLTEQLWRIFAGVHREKAKP here?
A: 2.35

Q: Which protein stability index does the source give for FWHDTLTEQLWRIFAGVHSEKAKP here?
A: 1.79

Q: Which protein stability index does the source give for FWHDTLTEQLWRIFAGVHVEKAKP here?
A: 3.94

Q: For FWHDTLTEQLWRIFAGVHMEKAKP, which protein stability index is on record?
A: 2.1

Q: With FWHDTLTEQLWRLFAGVHDEKAKP as the variant, how does the protein stability index read?
A: 1.69

Q: With FWHDTLTEQLWRWFAGVHDEKAKP as the variant, how does the protein stability index read?
A: 1.47

Q: For FWHDTLTEQLWRHFAGVHDEKAKP, which protein stability index is on record?
A: 1.94

Q: With FWHDTLTEQLWRYFAGVHDEKAKP as the variant, how does the protein stability index read?
A: 2.1

Q: With FWHDTLTEQLWRCFAGVHDEKAKP as the variant, how does the protein stability index read?
A: 2.39

Q: For FWHDTLTEQLWRPFAGVHDEKAKP, which protein stability index is on record?
A: 2.85

Q: With FWHDTLTEQLWRTFAGVHDEKAKP as the variant, how does the protein stability index read?
A: 2.44

Q: Which protein stability index does the source give for FWHDTLTEQLWRFFAGVHDEKAKP here?
A: 1.96

Q: For FWHDTLTEQLWRMFAGVHDEKAKP, which protein stability index is on record?
A: 2.13

Q: Which protein stability index does the source give for FWHDTLTEQLWRSFAGVHDEKAKP here?
A: 1.99

Q: Which protein stability index does the source give for FWHDTLTEQLWRRFAGVHDEKAKP here?
A: 2.02

Q: Which protein stability index does the source give for FWHDTLTEQLWRQFAGVHDEKAKP here?
A: 2.54

Q: Which protein stability index does the source give for FWHDTLTEQLWRVFAGVHDEKAKP here?
A: 1.72

Q: For FWHDTLTEQLWRNFAGVHDEKAKP, which protein stability index is on record?
A: 1.59

Q: Which protein stability index does the source give for FWHDTLTEQLWRAFAGVHDEKAKP here?
A: 2.02

Q: Which protein stability index does the source give for FWHDTLTEQLWREFAGVHDEKAKP here?
A: 2.99

Q: Which protein stability index does the source give for FWHDTLTEQLWRDFAGVHDEKAKP here?
A: 1.78

Q: For FWHDTLTEQLWRKFAGVHDEKAKP, which protein stability index is on record?
A: 2.53

Q: For FWHDTLTEQLWRIFAGVHDNKAKP, which protein stability index is on record?
A: 2.19

Q: For FWHDTLTEQLWRIFAGVHDTKAKP, which protein stability index is on record?
A: 1.91

Q: Which protein stability index does the source give for FWHDTLTEQLWRIFAGVHDMKAKP here?
A: 2.88

Q: Which protein stability index does the source give for FWHDTLTEQLWRIFAGVHDKKAKP here?
A: 1.87

Q: For FWHDTLTEQLWRIFAGVHDHKAKP, which protein stability index is on record?
A: 1.46

Q: With FWHDTLTEQLWRIFAGVHDPKAKP as the variant, how does the protein stability index read?
A: 1.87

Q: For FWHDTLTEQLWRIFAGVHDFKAKP, which protein stability index is on record?
A: 1.82

Q: With FWHDTLTEQLWRIFAGVHDDKAKP as the variant, how does the protein stability index read?
A: 2.62

Q: Which protein stability index does the source give for FWHDTLTEQLWRIFAGVHDIKAKP here?
A: 1.99

Q: With FWHDTLTEQLWRIFAGVHDGKAKP as the variant, how does the protein stability index read?
A: 1.91

Q: With FWHDTLTEQLWRIFAGVHDRKAKP as the variant, how does the protein stability index read?
A: 1.24

Q: With FWHDTLTEQLWRIFAGVHDCKAKP as the variant, how does the protein stability index read?
A: 1.79

Q: Which protein stability index does the source give for FWHDTLTEQLWRIFAGVHDQKAKP here?
A: 1.96

Q: Which protein stability index does the source give for FWHDTLTEQLWRIFAGVHDAKAKP here?
A: 2.37

Q: For FWHDTLTEQLWRIFAGVHDSKAKP, which protein stability index is on record?
A: 2.41

Q: With FWHDTLTEQLRRIFAGVHDEKAKP as the variant, how does the protein stability index read?
A: 2.22

Q: With FWHDTLTEQLARIFAGVHDEKAKP as the variant, how does the protein stability index read?
A: 2.37

Q: For FWHDTLTEQLDRIFAGVHDEKAKP, which protein stability index is on record?
A: 2.82

Q: Which protein stability index does the source give for FWHDTLTEQLSRIFAGVHDEKAKP here?
A: 2.18

Q: Which protein stability index does the source give for FWHDTLTEQLTRIFAGVHDEKAKP here?
A: 2.35

Q: With FWHDTLTEQLIRIFAGVHDEKAKP as the variant, how does the protein stability index read?
A: 1.79

Q: For FWHDTLTEQLGRIFAGVHDEKAKP, which protein stability index is on record?
A: 2.46

Q: With FWHDTLTEQLPRIFAGVHDEKAKP as the variant, how does the protein stability index read?
A: 3.12

Q: Which protein stability index does the source give for FWHDTLTEQLQRIFAGVHDEKAKP here?
A: 2.21

Q: Which protein stability index does the source give for FWHDTLTEQLYRIFAGVHDEKAKP here?
A: 2.87

Q: With FWHDTLTEQLLRIFAGVHDEKAKP as the variant, how does the protein stability index read?
A: 1.85

Q: With FWHDTLTEQLHRIFAGVHDEKAKP as the variant, how does the protein stability index read?
A: 2.52

Q: With FWHDTLTEQLFRIFAGVHDEKAKP as the variant, how does the protein stability index read?
A: 1.59

Q: Which protein stability index does the source give for FWHDTLTEQLKRIFAGVHDEKAKP here?
A: 2.52

Q: With FWHDTLTEQLVRIFAGVHDEKAKP as the variant, how does the protein stability index read?
A: 1.56

Q: Which protein stability index does the source give for FWHDTLTEQLNRIFAGVHDEKAKP here?
A: 2.19

Q: For FWHDTLTEQLMRIFAGVHDEKAKP, which protein stability index is on record?
A: 1.76

Q: For FWHDTLTEQLERIFAGVHDEKAKP, which protein stability index is on record?
A: 2.85

Q: For FWHDTLTEQLCRIFAGVHDEKAKP, which protein stability index is on record?
A: 1.99
